Source: PMC8758478

Assays:
[1] = target: recombinant α-secretase N-terminal soluble form of APP695 (sAPPα^695) (human); experiment: AUC; sedimentation velocity, 50,000 rpm, absorbance at 280 nm, c(S) model (Sedfit); APP 2.5 μM with holo-Lf 2.5, 3.75, 5 μM or apo-Lf 2.5, 12.5 μM; weight average sedimentation coefficients fitted to a two-site binding model
[2] = target: recombinant α-secretase N-terminal soluble form of APP695 (sAPPα^695) (human); experiment: other fluorescence titration; native tryptophan fluorescence, excitation 295 nm, change of intensity at 340 nm against Lf concentration, fitted to two independent sites on an acceptor; 96-well quartz microplate

holo-lactoferrin (iron-bound form of Lf) (natural protein)
Kd1:1 (first site, two-site binding model) [1]: 620 nM | Kd1:2 (second site, two-site binding model) [1]: 8.2 µM | stoichiometry N (Lf molecules per sAPPα695 molecule) [1]: 2 | Kd1:1 (first site, two-site model) [2]: 690 nM | Kd1:2 (second site, two-site model) [2]: 9.4 µM
